# B1: recombinant FabG (3-ketoacyl-ACP reductase) of Streptococcus suis serotype 2 strain ZY05719 (natural protein, UniProt A0A0H3MXL9 1-244, looked up)
# chain: MELTNKNVFVTGSSRGIGLAIAHKFASLGANVVLNGRGQLGQDLLDSFADYGVKVLAISGDISSAQDAKRMVAEAIETLGSVDILVNNAGITKDGMALRMTEEDFDTVLKVNLTGTFNMTQAVLKPMTKAREGAIINLSSVSGLIGNAGQANYSASKAGVIGFTKAIAREVAGRNVRVNAIAPGFIQSDMTDVLSDKIKEAMTAQIPMKRFGATEEVADVAVFLAKQEYLTGQVIAVDGGLTMQ
# Target: human plasminogen (human, UniProt P00747 20-810)
# Test: SPR
# human plasminogen, sequence (P00747 20-810): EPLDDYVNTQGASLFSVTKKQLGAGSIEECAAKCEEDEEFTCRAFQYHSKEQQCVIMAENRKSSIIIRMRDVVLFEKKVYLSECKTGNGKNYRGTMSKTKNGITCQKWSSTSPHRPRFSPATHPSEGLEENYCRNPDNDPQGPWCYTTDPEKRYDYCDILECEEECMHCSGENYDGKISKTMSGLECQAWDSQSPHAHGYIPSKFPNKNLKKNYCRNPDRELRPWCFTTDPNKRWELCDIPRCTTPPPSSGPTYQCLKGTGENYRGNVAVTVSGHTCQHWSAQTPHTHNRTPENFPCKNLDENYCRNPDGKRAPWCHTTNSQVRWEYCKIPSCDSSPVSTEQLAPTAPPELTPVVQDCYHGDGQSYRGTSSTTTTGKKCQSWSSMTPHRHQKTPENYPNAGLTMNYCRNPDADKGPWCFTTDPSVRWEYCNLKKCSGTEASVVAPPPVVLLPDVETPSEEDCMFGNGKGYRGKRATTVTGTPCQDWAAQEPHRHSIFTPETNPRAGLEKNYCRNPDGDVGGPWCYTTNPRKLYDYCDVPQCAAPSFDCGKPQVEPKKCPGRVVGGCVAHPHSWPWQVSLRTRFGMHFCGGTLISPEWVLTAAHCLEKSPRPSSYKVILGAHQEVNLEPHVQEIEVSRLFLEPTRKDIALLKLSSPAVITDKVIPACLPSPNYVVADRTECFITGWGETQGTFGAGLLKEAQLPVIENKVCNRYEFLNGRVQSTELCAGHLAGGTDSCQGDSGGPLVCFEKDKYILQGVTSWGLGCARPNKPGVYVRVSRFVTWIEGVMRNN
binder,measurement,value
B1,Kd,1.72 nM

# — article PMC12232145 (BMC Microbiology, 2025)
